In patent US7825096B2, “O6-alkylguanine-DNA alkyltransferase inactivators and beta-glucuronidase cleavable prodrugs” (The United States of America as represented by the …, priority 2004, dated 2010):

Columns and labels:
Format in all cases: biochemical
[1] = substrate: O=C(Nc1nc(OCc2ccccc2)c2ncn([C@H]3C[C@H](O)[C@@H](CO)O3)c2n1)OCc1ccc(O[C@@H]2O[C@H](C(=O)O)[C@@H](O)[C@H](O)[C@H]2O)c([N+](=O)[O-])c1; assay: Enzymatic hydrolysis of prodrugs by bovine liver β-glucuronidase in MOPS buffer; details: other: bovine liver β-glucuronidase, 37° C., pH 7.0
Procedure: (§1) The enzymatic hydrolysis of the prodrugs was investigated with both E. coli and bovine liver β-glucuronidase in MOPS buffer at pH 7.0. Prodrugs and p-nitrobenzyl alcohol (HPLC internal standard) were dissolved in the MOPS buffer (pH 7.0) at 37° C. Enzymatic cleavage was initiated by adding 0.2 Fishman units of E. coli β-glucuronidase (Sigma type IX-A) (42.8 units/mg of protein) or 10 Fishman units of bovine liver β-glucuronidase (Sigma type B-10) (10.2 units/mg of protein) to the incubation buffer. Aliquots (100 μL) of the reaction mixture were withdrawn at various times and were mixed with 100 μL of acetonitrile/0.1 M TEAA (6:4) to quench the enzymatic reaction. Prodrug and product concentrations were determined by HPLC. For determination of enzyme kinetic parameters, prodrug solutions at concentrations between 5 and 300 μM were incubated with a fixed amount of enzyme. Aliquots were withdrawn at time intervals varying from 1 to 20 min and the reactions were quenched as described above. Initial reaction velocities were determined at each substrate concentration. Non-linear regression methods were used to determine KM and Vmax values. Data were processed with Prism 3.0 software.

[2] = substrate: O=C(Nc1nc(OCc2ccccc2)c2nc[nH]c2n1)OCc1ccc(O[C@@H]2O[C@H](C(=O)O)[C@@H](O)[C@H](O)[C@H]2O)c([N+](=O)[O-])c1; assay: as above; details: other: bovine liver β-glucuronidase, 37° C., pH 7.0
Procedure: as §1

[3] = substrate: O=C(Nc1nc(OCc2ccccc2)c2ncn([C@H]3C[C@H](O)[C@@H](CO)O3)c2n1)OCc1ccc(O[C@@H]2O[C@H](C(=O)O)[C@@H](O)[C@H](O)[C@H]2O)c([N+](=O)[O-])c1; assay: Enzymatic hydrolysis of prodrugs by E. coli β-glucuronidase in MOPS buffer; details: other: E. coli β-glucuronidase, 37° C., pH 7.0
Procedure: as §1

[4] = substrate: O=C(Nc1nc(OCc2ccccc2)c2nc[nH]c2n1)OCc1ccc(O[C@@H]2O[C@H](C(=O)O)[C@@H](O)[C@H](O)[C@H]2O)c([N+](=O)[O-])c1; assay: as above; details: other: E. coli β-glucuronidase, 37° C., pH 7.0
Procedure: as §1

| Protein | Km [1] [µM] | Km [2] [µM] | Km [3] [µM] | Vmax [3] [µmol/mg/h] | Km [4] [µM] | Vmax [4] [µmol/mg/h] |
| --- | --- | --- | --- | --- | --- | --- |
| bovine liver β-glucuronidase (Bos taurus) (protein, bovine liver β-glucuronidase (Sigma type B-10) (10.2 units/mg of protein); purchased Sigma type B-10; host or cells: bovine liver) MLRGSAGAWAVLGPLLWGCGLSLLQGGMLYPRESRSRERKELDGLWSFRADFSDNRRQGFEQQWYRAPLRESGPTLDMPVPSSFNDVGQDGQLRSFVGWVWYEREITLPQRWTEDLGTRVVLRIGSAHYYAIVWVNGVHVLEHEGGHLPFEADISKLVQSGPLSSCRITIAINNTLSPHTLPPGTILYKTDPSMYPKGYFVQNTKFDFFNYAGLHRSVLLYTTPTTYIDDITVTTDMDQDIGLVNYQIIVQGSDHFQVDVSLLDEEGKVMAKGAGAEGQLQVPSAHLWWPYLMHEHPAYLYSLEVKLTAQTAVGPVSDFYTLPVGIRTVAVTKSQFLINGKPFYFRGVNKHEDADIRGKGFDWPLLVKDFNLLRWLGANAFRTSHYPYSEEVLQLCDRYGIVVIDESPGVGIVLVESFSNVSLQHHLEVMEEMIRRDKNHPAVVMWSLANEPASFLKPAGYYFKTLIAHTKALDPSRPVTFVTNTNYEADLGAPYVDIICVNSYYSWYHDYGHMEVIQLQLATQFENWYKAYQKPMIQSEYGADAIEGFHEDPPLMFSEEYQKGLLQQYHVVLDQKRKEYVVGELIWNFADFMTNQSPVRMIGNRKGIFTRQRQPKSAAFLLRERYWKLANETRYQRSAVTSQCVGSGLFTV | 362 | 244 | – | – | – | – |
| E. coli β-glucuronidase (Escherichia coli K-12) (protein, purchased Sigma type IX-A) MLRPVETPTREIKKLDGLWAFSLDRENCGIDQRWWESALQESRAIAVPGSFNDQFADADIRNYAGNVWYQREVFIPKGWAGQRIVLRFDAVTHYGKVWVNNQEVMEHQGGYTPFEADVTPYVIAGKSVRITVCVNNELNWQTIPPGMVITDENGKKKQSYFHDFFNYAGIHRSVMLYTTPNTWVDDITVVTHVAQDCNHASVDWQVVANGDVSVELRDADQQVVATGQGTSGTLQVVNPHLWQPGEGYLYELCVTAKSQTECDIYPLRVGIRSVAVKGEQFLINHKPFYFTGFGRHEDADLRGKGFDNVLMVHDHALMDWIGANSYRTSHYPYAEEMLDWADEHGIVVIDETAAVGFNLSLGIGFEAGNKPKELYSEEAVNGETQQAHLQAIKELIARDKNHPSVVMWSIANEPDTRPQGAREYFAPLAEATRKLDPTRPITCVNVMFCDAHTDTISDLFDVLCLNRYYGWYVQSGDLETAEKVLEKELLAWQEKLHQPIIITEYGVDTLAGLHSMYTDMWSEEYQCAWLDMYHRVFDRVSAVVGEQVWNFADFATSQGILRVGGNKKGIFTRDRKPKSAAFLLQKRWTGMNFGEKPQQGGKQ | – | – | 41.1 | 677000 | 17.0 | 466000 |
